Test results taken from article PMC9259572.

Target: full-length epidermal growth factor receptor (EGFR) with a SNAP tag at the C-terminal position, embedded in a lipid bilayer nanodisc (UniProt P00533)

- smFRET donor fluorescence lifetime of WT EGFR in nanodiscs (both bilayers) with 1 μM epigen; peak of the distribution: 1.5 ns
B1: Human epigen (ligand)
chain: AAVTVTPPITAQQGNWTVNKTEADNIEGPIALKFSHLCLEDHNSYCINGACAFHHELEKAICRCFTGYTGERCEHLTLTSYAVDSYEKYIAIGIGVGLLLSGFLVIFYCYIRKRCLKLKSPYNVCSGERRPL
